Series [1] addresses 3,4-ketoisomerase domain of FdtD (Shewanella denitrificans, UniProt Q12KT8). Put plainly: X-ray crystal structure, […] A. In kind it is binding. The following applies: crystal soaked with 3 mM ligand, pH 7; active site, substrate analogue.
The target in series [2] is 3,4-ketoisomerase domain of FdtD from Shewanella denitrificans (Shewanella denitrificans). Put plainly: crystal structure.
The next series deals with QdtA (Thermoanaerobacterium thermosaccharolyticum, UniProt Q6TFC5, Y17R/R97H). Nature of the series: X-ray crystal structure, […] A. The class given is binding. The note with it: dTDP co-purified from E. coli, not added; pH 6; active site.
Substrate in series [3]: Cc1cn([C@H]2C[C@H](O)[C@@H](COP(=O)(O)OP(=O)(O)O[C@H]3O[C@H](C)C(=O)[C@H](O)[C@H]3O)O2)c(=O)[nH]c1=O
Put plainly: purified protein. The class given is biochemical, Shewanella denitrificans. The note with it: 50 mM HEPES pH 7.5, 0.2 mM NADPH, 1 mg/mL KijD10.

Substrate in series [4]: Cc1cn([C@H]2C[C@H](O)[C@@H](COP(=O)(O)OP(=O)(O)O[C@H]3O[C@H](C)C(=O)[C@H](O)[C@H]3O)O2)c(=O)[nH]c1=O
Put plainly: purified protein. The note with it: 50 mM HEPES pH 7.5, 0.2 mM NADPH, 1 mg/mL KijD10.

Substrate in series [5]: Cc1cn([C@H]2C[C@H](O)[C@@H](COP(=O)(O)OP(=O)(O)O[C@H]3O[C@H](C)C(=O)[C@H](O)[C@H]3O)O2)c(=O)[nH]c1=O
Nature of the series: purified protein. In kind it is biochemical, Thermoanaerobacterium thermosaccharolyticum. The note with it: 50 mM HEPES pH 7.5, 0.2 mM NADPH, 1 mg/mL KijD10.

Series [6] deals with the molecule itself. Nature of the series: crystal structure.
Series [7] deals with the molecule itself. Put plainly: crystal structure. The source holds these as a separate data set.

Positions count from the first letter of the chain named. In names and notes the source's numbering stands. Like-named read-outs stand apart in the source and are kept apart here.

Regarding `Cc1cn([C@H]2C[C@H](O)[C@@H](COP(=O)(O)OP(=O)(O)O[C@H]3O[C@H](C)[C@@H](NC=O)[C@H](O)[C@H]3O)O2)c(=O)[nH]c1=O` [dTDP-4,6-dideoxy-4-formamido-glucose], in series [1], the “X-ray crystal structure, 1.7 A” value is “structure of the enzyme was solved in the presence of dTDP-4,6-dideoxy-4-formamido-D-glucose”.

One may read the stoichiometry N as a count of units in the complex or per binding partner. With “3,4-ketoisomerase domain of FdtD from Shewanella denitrificans (domain or fragment)”, in series [2], the stoichiometry N amounted to 2.

Turning to `Cc1cn([C@H]2C[C@H](O)[C@@H](COP(=O)(O)OP(=O)(O)O)O2)c(=O)[nH]c1=O` [dTDP], at QdtA, the “X-ray crystal structure, 2.3 A” value was “Observed electron density for the dTDP moiety bound to the QdtA Y17R/R97H mutant enzyme”.

B1: 3,4-ketoisomerase domain of FdtD (Shewanella denitrificans OS217) (protein)
chain: SNNFELKLQMSKVKGVSLHKFHLVNDLRGNLSVGEFEKDIPFTPKRYFTVFGVPNKEVRGEHAHKECKQFLICVSGNCSVLVDDGENREEYVLDSIDKGIYLPPMTWGVQYKYSKDAVLLVFASHYYDSDDYIRDYSTFKQMRQN
In general, Km refers to the substrate concentration at which the rate is half of its maximum. Broadly, the kcat is the number of substrate molecules converted per active site and unit of time at saturation. The kcat/Km is the second-order rate constant that governs catalysis at low substrate concentration. As to B1, in the series “purified protein [3]”, the Michaelis-Menten constant (Km) worked out at 790 ± 120 µM, the turnover number (kcat) was 4.85 ± 0.56 s⁻¹ and the kcat/Km stood at 6100 M⁻¹ s⁻¹.

B2: QdtA (Thermoanaerobacterium thermosaccharolyticum; Y17R) (protein)
chain: MLYNVALIKFKDIADKRGHLTPIEGKIDIPFDIKRVYYITKVDKDITRGYHAHKKLHQVLICLNGSVKIRLKIPDEEKIIELNDPSVGLYIGPFLWREMFDFTEGCVLLVLASEYCDETDYIRNYDFYIDEAKKRF
On to B2, for which the Km in the series “purified protein [4]” was 370 ± 60 µM.

B3: QdtA (Thermoanaerobacterium thermosaccharolyticum; Y37F) (protein)
chain: B2 chain with R17Y, Y37F
B3: in the series “purified protein [5]”, the Km is 34 ± 7 µM, the turnover number (kcat) was found to be 0.023 ± 0.004 s⁻¹ and the specificity constant (kcat/Km) was determined as 690 M⁻¹ s⁻¹.

B4: QdtA (Thermoanaerobacterium thermosaccharolyticum; R97H) (protein)
chain: B2 chain with R17Y, R97H
On to B4, for which, in “purified protein [5]”, the Michaelis constant (Km) was determined as 61 ± 9 µM, the turnover number (kcat) stood at 0.4 ± 0.06 s⁻¹ and the specificity constant (kcat/Km) worked out at 6500 M⁻¹ s⁻¹.

B5: QdtA Y17R/R97H double mutant from Thermoanaerobacterium thermosaccharolyticum (enzyme)
chain: B2 chain with R97H
B5: in “purified protein [4]”, the Michaelis-Menten constant (Km) was 21 ± 5 µM. Besides, the “stoichiometry N” value in the series “crystal structure [6]” came to 2.

B6: QdtA from Thermoanaerobacterium thermosaccharolyticum, wild-type apoenzyme (enzyme)
chain: B2 chain with R17Y
With B6, in the series “purified protein [5]”, the Michaelis constant (Km) turned out to be 140 ± 10 µM, the kcat is 3.85 ± 0.25 s⁻¹ and the kcat/Km turned out to be 28000 M⁻¹ s⁻¹. For the same molecule, the “stoichiometry N” value in the series “crystal structure [7]” worked out at 2.

Values taken from paper PMC5095699 (Biochemistry, 2015).
